Source: publication PMC5389570
Read-outs that look alike come from different tables or passages of the source.

Assays:
[1] = molecular target: T1, RPA heterotrimer (RPA70/RPA32/RPA14) (Homo sapiens, UniProt P27694;P15927;P35244 1-616;1-270;1-121); assay: SPR
[2] = molecular target: T1, RPA heterotrimer (RPA70/RPA32/RPA14); assay: SPR; remark: listed apart in the source
[3] = molecular target: T1, RPA heterotrimer (RPA70/RPA32/RPA14); assay: EMSA
Cdc45 = molecular target: T2, Cdc45 (Homo sapiens, UniProt O75419 1-566); assay: EMSA
T2 sequence: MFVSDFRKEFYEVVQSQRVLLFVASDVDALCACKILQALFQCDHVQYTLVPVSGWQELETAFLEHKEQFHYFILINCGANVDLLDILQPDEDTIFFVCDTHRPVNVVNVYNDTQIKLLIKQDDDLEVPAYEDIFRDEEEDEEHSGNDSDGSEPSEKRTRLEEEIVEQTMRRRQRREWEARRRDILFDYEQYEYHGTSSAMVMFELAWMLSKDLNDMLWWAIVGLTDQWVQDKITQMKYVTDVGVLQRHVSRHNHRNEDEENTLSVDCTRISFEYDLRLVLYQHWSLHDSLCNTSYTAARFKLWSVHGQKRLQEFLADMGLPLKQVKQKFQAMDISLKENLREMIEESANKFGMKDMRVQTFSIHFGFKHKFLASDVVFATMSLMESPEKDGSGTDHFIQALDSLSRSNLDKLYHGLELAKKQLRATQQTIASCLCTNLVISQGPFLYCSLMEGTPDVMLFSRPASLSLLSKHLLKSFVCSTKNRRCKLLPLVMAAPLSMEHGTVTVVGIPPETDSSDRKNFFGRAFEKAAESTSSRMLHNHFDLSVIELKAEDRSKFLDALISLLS

SSB = SSB (Escherichia coli, UniProt P0AGE0 1-178); assay: EMSA
[4] = molecular target: T1, RPA heterotrimer (RPA70/RPA32/RPA14); assay: EMSA; remark: listed apart in the source

T1 sequence (P27694 whole entry, chain 1 of 3): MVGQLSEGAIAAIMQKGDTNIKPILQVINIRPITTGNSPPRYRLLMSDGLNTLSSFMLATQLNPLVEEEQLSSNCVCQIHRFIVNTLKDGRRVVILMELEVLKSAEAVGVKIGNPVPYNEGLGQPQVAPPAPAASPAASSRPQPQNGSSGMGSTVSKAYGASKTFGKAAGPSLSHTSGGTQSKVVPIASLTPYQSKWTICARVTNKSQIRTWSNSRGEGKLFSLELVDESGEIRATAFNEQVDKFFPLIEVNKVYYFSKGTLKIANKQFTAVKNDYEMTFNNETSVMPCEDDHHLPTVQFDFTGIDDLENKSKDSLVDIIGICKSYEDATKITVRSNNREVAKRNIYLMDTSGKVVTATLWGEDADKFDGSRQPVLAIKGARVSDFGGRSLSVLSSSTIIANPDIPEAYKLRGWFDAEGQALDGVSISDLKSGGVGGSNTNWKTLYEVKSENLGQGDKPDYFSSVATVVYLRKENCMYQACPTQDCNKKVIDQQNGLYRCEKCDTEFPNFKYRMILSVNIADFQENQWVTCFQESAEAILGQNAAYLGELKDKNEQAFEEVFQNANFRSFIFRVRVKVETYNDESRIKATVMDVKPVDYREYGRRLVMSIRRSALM
T1 sequence (P15927 whole entry, chain 2 of 3): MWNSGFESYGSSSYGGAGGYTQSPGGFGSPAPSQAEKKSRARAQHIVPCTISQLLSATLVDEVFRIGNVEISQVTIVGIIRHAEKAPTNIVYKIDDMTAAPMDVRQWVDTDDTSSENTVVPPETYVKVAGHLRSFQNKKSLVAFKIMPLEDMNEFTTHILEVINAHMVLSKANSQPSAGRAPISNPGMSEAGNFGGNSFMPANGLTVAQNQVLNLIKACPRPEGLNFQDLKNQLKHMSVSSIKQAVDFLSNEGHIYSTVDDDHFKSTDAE
T1 sequence (P35244 whole entry, chain 3 of 3): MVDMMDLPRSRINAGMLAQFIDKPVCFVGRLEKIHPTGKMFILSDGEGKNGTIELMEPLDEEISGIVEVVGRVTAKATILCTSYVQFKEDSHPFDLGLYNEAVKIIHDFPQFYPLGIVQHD
SSB, sequence (P0AGE0 whole entry): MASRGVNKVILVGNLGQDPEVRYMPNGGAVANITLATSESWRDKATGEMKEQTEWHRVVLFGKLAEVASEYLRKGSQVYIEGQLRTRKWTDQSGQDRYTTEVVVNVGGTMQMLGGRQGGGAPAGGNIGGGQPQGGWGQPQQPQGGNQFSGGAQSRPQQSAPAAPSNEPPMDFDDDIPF

B1: M10-biotin (10-mer) (ssDNA)
DNA: GGCTGGCATG
**Q.** With B1 as the binder, how does the Kd [1] read?
**A.** The Kd was 112 ± 14 nM.

**Q.** And the Kd [2]?
**A.** Its Kd is 44.1 ± 4.7 nM.

B2: M5 (67-mer; called 65-mer in text) (ssDNA)
DNA: GTACCCGGGGATCCTCTAGAGTCGACCTGCAGGCATGCAAGCTTGGCACTGGCCGTCGTTTTACAAC
**Q.** With B2 as the binder, how does the binding signal [3] read?
**A.** The binding signal was ~4 fold vs RPA alone.

B3: M2 (34-mer) (ssDNA)
DNA: GCTTGCATGCCTGCAGGCCAGCCTCAATCTCATC
**Q.** What does the source list for B3?
**A.** binding result (Cdc45): no binding; binding result (SSB): binds; binding signal [4]: > 5 fold vs RPA alone

B4: M2-biotin (34-mer) (ssDNA)
DNA: GCTTGCATGCCTGCAGGCCAGCCTCAATCTCATC
**Q.** How did the Kd [2] turn out when B4 was run?
**A.** Its Kd is 1.53 ± 1.3 nM.
